# Measurements taken from IntAct's records for PubMed 28587924.
# B1: Argininosuccinate synthase (Homo sapiens), P00966 (parent)
# chain: MSSKGSVVLAYSGGLDTSCILVWLKEQGYDVIAYLANIGQKEDFEEARKKALKLGAKKVFIEDVSREFVEEFIWPAIQSSALYEDRYLLGTSLARPCIARKQVEIAQREGAKYVSHGATGKGNDQVRFELSCYSLAPQIKVIAPWRMPEFYNRFKGRNDLMEYAKQHGIPIPVTPKNPWSMDENLMHISYEAGILENPKNQAPPGLYTKTQDPAKAPNTPDILEIEFKKGVPVKVTNVKDGTTHQTSLELFMYLNEVAGKHGVGRIDIVENRFIGMKSRGIYETPAGTILYHAHLDIEAFTMDREVRKIKQGLGLKFAELVYTGFWHSPECEFVRHCIAKSQERVEGKVQVSVLKGQVYILGRESPLSLYNEELVSMNVQGDYEPTDATGFININSLRLKEYHRLQSKVTAK
# partner: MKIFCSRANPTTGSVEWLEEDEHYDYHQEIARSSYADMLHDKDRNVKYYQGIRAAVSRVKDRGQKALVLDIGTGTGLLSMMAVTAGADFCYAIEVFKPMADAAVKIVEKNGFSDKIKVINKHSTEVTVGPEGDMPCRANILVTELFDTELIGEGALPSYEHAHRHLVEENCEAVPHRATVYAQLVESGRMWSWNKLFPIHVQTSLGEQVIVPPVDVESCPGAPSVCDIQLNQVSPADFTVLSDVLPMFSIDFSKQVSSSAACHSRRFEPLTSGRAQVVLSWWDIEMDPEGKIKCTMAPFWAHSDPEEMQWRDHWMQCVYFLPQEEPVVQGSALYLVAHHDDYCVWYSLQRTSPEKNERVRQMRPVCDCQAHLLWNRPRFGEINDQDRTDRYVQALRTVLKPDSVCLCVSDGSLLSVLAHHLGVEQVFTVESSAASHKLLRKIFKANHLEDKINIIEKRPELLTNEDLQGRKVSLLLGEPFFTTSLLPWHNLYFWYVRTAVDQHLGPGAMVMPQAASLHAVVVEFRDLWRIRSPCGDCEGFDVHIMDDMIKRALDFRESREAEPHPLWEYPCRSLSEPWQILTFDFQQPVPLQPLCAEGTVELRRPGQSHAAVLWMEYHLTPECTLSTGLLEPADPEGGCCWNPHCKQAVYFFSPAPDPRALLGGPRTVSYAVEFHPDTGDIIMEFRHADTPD
# Assays:
# anm7_human PRMT7, Q9NVM4 [1] = variants of: B1; settings: with anm7_human PRMT7, Q9NVM4
# anm7_human PRMT7, Q9NVM4 [2] = variants of: B1; settings: with anm7_human PRMT7, Q9NVM4; remark: listed apart in the source
Variant,"effect of a mutation on the interaction (anm7_human PRMT7, Q9NVM4 [1])","effect of a mutation on the interaction (anm7_human PRMT7, Q9NVM4 [2])"
MSSKGSVVLAYSGGLDTSCILVWLKEQGYDVIAYLANIGQKEDFEEARKKALKLGAKKVFIEDVSREFVEEFIWPAIQSSALYEDRYLLGTSLARPCIARKQVEIAQREGAKYVSHGATGKGNDQVRFELSCYSLAPQIKVIAPWRMPEFYNRFKGRNDLMEYAKQHGIPIPVTPKNPWSMDENLMHISYEAGILENPKNQAPPGLYTKTQDPAKAPNTPDILEIEFKKGVPVKVTNVKDGTTHQTSLELFMYLNEVAGKHGVGRIDIVENRFIGMKSRGIYETPAGTILYHAHLGIEAFTMDREVRKIKQGLGLKFAELVYTGFWHSPECEFVRHCIAKSQERVEGKVQVSVLKGQVYILGRESPLSLYNEELVSMNVQGDYEPTDATGFININSLRLKEYHRLQSKVTAK [D296G],disrupting interaction strength,decreasing interaction strength
MSSKGSVVLAYSGGLDTSCILVWLKEQGYDVIAYLANIGQKEDFEEARKKALKLGAKKVFIEDVSREFVEEFIWPAIQSSALYEDRYLLGTSLARPCIARKQVEIAQREGAKYVSHGATGKGNDQVRFELSCYSLAPQIKVIAPWRMPEFYNRFKGRNDLMEYAKQHGIPIPVTPKNPWSMDENLMHISYEAGILENPKNQAPPGLYTKTQDPAKAPNTPDILEIEFKKGVPVKVTNVKDGTTHQTSLELFMYLNEVAGKHGVGRIDIVENRFIGMKSRGIYETPAGTILYHAHLDIEAFTMDREVRKIKQGLGLKFAELVYTGFWHSPECEFVRHCIAKSQERVEGKVQVSVLKGQVYALGRESPLSLYNEELVSMNVQGDYEPTDATGFININSLRLKEYHRLQSKVTAK [I360A],decreasing interaction strength,–
MSSKGSVVLAYSGGLDTSCILVWLKEQGYDVIAYLANIGQKEDFEEARKKALKLGAKKVFIEDVSREFVEEFIWPAIQSSALYEDRYLLGTSLARPCIARKQVEIAQREGAKYVSHGATGKGNDQVRFELSCYSLAPQIKVIAPWRMPEFYNRFKGRNDLMEYAKQHGIPIPVTPKNPWSMDENLMHISYEAGILENPKNQAPPGLYTKTQDPAKAPNTPDILEIEFKKGVPVKVTNVKDGTTHQTSLELFMYLNEVAGKHGVGRIDIVENRFIGMKSRGIYETPAGTILYHAHLDIEAFTMDREVRKIKQGLGLKFAELVYTGFWHSPECEFVRHCIAKSQERVEGKVQVSVLKGQVYILGLESPLSLYNEELVSMNVQGDYEPTDATGFININSLRLKEYHRLQSKVTAK [R363L],disrupting interaction strength,decreasing interaction strength
